IntAct's records for PubMed 27065194

B1: Protein BTG4 (Mus musculus), O70552 (parent)
chain: MRDEIATAVFFVTRLVKKHEKLSTQQIETFALKLMTILFEKYRGHWHPDCPSKGQAFRCIRINNNENKDPVLERACAESNVNFFHLGLPKEMTIWVDPYEVCCRYGEKKHPFTIASFKGRWENWELAQHVSCAVNRATGDCSSGTSSDEESCSREAQIIPKVNNPKSVYQVENFKQSLQPWFCLPRRKHLADGRGFLPGAACHPVPKSSKWCRPASRRVDRYHWVNAQLFSGQTAPGEPGEEALSSLKQK

Variants of: B1
Settings: with cnot7_mouse Cnot7, Q60809
cnot7_mouse Cnot7, Q60809, sequence (Q60809 whole entry): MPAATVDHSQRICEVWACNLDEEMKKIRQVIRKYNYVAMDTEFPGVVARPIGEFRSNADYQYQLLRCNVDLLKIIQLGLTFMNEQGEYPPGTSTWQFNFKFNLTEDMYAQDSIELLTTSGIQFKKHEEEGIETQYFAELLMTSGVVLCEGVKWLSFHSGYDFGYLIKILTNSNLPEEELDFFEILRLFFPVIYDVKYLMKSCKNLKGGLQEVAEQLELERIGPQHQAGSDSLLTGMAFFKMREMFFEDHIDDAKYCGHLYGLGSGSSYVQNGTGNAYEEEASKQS
With D69A the “effect of a mutation on the interaction” value was “disrupting interaction strength”.
For W46A, the “effect of a mutation on the interaction” value was “disrupting interaction strength”.
H45A was tested, and the “effect of a mutation on the interaction” value was “disrupting interaction strength”.
E107A was tested, and the “effect of a mutation on the interaction” value was “disrupting interaction strength”.
For C59A, the “effect of a mutation on the interaction” value was “decreasing interaction strength”.
R58A was tested, and the “effect of a mutation on the interaction” value was “disrupting interaction strength”.
W95A was tested, and the “effect of a mutation on the interaction” value was “disrupting interaction strength”.

Variants of: B1
Settings: with cnot8_mouse Cnot8, Q9D8X5
cnot8_mouse Cnot8, Q9D8X5, sequence (Q9D8X5 whole entry): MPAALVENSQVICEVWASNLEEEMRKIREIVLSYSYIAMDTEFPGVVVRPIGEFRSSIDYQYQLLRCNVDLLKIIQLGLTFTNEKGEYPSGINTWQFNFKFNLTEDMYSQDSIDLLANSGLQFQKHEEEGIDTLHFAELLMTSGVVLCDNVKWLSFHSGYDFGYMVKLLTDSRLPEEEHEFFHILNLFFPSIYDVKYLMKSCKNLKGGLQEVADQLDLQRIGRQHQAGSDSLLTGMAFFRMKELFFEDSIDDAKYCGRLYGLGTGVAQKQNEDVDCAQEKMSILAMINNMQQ
W95A was tested, and the “effect of a mutation on the interaction” value was “disrupting interaction strength”.
